Among the data in the supplement of paper PMC6379048 are EC50 values, retold here.

Holding throughout (test): EC50 of free RNA motif oligo competing protein binding to immobilised probe
The target of one data set is T1, KHSRP (UniProt Q92945).
T1 sequence: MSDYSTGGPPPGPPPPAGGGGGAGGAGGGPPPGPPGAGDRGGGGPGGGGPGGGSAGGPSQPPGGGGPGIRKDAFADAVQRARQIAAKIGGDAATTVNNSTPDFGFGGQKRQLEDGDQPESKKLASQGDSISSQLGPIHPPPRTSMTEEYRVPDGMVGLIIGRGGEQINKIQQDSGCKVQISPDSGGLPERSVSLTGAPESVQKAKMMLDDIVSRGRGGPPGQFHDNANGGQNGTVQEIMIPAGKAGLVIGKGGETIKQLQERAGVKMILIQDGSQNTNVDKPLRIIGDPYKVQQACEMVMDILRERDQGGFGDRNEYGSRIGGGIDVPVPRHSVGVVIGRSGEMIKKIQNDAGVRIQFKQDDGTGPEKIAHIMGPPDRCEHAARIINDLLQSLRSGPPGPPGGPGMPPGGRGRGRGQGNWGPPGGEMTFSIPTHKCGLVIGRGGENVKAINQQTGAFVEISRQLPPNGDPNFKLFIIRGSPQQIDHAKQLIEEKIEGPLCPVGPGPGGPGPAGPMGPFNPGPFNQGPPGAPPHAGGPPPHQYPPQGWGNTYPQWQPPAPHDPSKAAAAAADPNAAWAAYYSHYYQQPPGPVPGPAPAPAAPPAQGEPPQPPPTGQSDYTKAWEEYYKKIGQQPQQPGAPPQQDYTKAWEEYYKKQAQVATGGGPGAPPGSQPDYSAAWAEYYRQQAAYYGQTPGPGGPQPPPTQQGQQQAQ
In short, it runs like this: (§1)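 Kd was calculated as EC50, taken from a four-parameter log-logistic fit, multiplied by a protein-dependent depletion factor. The assay used HEK293-FT lysate (2.5 mg protein/well) pre-incubated for 1 h at 4°C with free RNA oligos (0 nM to 30 μM), then incubated for 30 min at 4°C with the matching oligos bound through a 5′-amino-C6 linker to NHS-Sepharose beads. Bound proteins were measured by label-free LC-MS/MS and normalised to the control.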

A further data set concerns the target LRPPRC (UniProt P42704). In outline:
as §1

The target in the next data set is ELAVL2 (UniProt Q12926). In outline: as §1
Chain of ELAVL2 (Q12926 whole entry): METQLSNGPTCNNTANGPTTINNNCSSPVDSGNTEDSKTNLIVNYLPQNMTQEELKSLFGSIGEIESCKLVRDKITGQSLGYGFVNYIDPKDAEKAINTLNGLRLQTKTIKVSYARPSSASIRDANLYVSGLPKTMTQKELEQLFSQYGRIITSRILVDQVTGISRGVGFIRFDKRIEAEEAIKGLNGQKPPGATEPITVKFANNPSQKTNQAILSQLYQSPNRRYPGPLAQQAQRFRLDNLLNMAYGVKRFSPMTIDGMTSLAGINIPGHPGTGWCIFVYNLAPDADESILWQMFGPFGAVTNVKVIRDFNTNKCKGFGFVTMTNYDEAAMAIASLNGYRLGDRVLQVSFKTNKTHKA
A further data set has as its target T2, PATL1 (UniProt Q86TB9).
T2 sequence: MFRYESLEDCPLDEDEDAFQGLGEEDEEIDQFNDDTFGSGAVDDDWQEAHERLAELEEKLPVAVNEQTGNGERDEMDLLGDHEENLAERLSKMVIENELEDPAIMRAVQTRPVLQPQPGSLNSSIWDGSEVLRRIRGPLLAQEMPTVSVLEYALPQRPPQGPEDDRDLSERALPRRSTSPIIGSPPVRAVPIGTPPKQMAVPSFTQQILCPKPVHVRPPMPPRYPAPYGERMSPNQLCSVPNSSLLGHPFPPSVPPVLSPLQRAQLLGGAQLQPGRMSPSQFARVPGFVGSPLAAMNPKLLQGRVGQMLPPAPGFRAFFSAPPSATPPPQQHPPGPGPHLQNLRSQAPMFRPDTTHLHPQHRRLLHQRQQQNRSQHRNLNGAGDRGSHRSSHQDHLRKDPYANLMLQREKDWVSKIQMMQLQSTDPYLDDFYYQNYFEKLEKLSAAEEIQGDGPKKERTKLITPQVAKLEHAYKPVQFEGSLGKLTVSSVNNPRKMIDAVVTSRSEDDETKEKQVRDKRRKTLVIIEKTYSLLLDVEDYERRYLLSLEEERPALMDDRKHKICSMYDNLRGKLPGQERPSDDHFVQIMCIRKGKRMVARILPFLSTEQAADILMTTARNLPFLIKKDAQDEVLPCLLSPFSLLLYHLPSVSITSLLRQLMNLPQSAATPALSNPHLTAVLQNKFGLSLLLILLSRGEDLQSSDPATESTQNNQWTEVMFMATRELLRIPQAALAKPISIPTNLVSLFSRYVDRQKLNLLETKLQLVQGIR
In short, it runs like this:
as §1

The next data set concerns the target HNRNPAB (UniProt Q99729). In outline:
as §1

In the next data set the target is T3, CMTR1 (UniProt Q8N1G2).
T3 sequence: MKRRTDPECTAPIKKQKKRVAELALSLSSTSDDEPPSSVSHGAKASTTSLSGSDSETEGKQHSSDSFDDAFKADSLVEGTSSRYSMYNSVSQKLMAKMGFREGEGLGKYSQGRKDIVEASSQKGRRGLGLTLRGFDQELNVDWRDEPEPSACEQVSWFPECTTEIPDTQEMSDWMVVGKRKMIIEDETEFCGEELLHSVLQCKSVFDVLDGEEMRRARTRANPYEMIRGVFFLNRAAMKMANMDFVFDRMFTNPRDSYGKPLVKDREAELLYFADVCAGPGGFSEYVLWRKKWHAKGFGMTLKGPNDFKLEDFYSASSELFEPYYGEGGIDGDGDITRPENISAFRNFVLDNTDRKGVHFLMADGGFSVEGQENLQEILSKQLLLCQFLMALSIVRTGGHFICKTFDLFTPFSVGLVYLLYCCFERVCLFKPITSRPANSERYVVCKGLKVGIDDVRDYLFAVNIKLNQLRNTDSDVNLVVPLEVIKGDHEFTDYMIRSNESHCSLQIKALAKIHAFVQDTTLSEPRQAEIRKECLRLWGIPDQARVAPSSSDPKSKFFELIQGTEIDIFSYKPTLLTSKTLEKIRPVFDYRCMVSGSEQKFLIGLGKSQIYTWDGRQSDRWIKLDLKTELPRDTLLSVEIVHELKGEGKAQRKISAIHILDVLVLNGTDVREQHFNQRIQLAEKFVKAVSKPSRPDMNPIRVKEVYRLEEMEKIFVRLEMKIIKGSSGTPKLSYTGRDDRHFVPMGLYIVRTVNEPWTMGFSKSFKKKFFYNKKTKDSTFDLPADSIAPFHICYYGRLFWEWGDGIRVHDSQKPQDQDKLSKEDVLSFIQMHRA
In outline:
as §1

In the next data set the target is SLIRP (UniProt Q9GZT3). In short, it runs like this:
as §1

By EC50 is commonly meant the midpoint of the concentration-response curve.

Chain of HNRNPAB (Q99729 whole entry): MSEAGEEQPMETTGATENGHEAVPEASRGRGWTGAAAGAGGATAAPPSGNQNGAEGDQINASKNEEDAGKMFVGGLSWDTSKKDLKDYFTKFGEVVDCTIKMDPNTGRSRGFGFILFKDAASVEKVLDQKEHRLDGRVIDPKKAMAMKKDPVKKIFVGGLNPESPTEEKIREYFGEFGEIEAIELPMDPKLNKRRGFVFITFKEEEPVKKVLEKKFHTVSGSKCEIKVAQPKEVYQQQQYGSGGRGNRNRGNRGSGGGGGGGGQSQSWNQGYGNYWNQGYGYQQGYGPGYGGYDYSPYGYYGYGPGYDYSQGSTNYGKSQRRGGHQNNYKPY

Consider AAUAAA, for which the EC50 with KHSRP was 2220 nM; with LRPPRC it was 2880 nM; with ELAVL2, 9740 nM; in the data set with PATL1 it was 468 nM; with HNRNPAB, 3010 nM; in the data set with CMTR1 it was 298 nM. The EC50 with SLIRP was 1580 nM.

For the sequence CUGUCCU, the EC50 with LRPPRC came out at 2270 nM; in the data set with SLIRP, 1530 nM.

Consider UAUUUAU, for which the EC50 with KHSRP came to 1730 nM; in the data set with ELAVL2, 3840 nM; with PATL1, 407 nM; with HNRNPAB it was 3090 nM; with CMTR1 it was 1200 nM.
